Test results as given in publication PMC11667166.
Read-outs that look alike come from different tables or passages of the source.

Substance | localisation_or_trafficking (N-glycosylation at N126) | localisation_or_trafficking (N-glycosylation at N195) | localisation_or_trafficking (N-glycosylation at N213)
CD320: N126Q/N195Q/N213Q (QQQ) | no change | no change | no change
CD320: N126Q | no change | – | –
CD320: N213Q | – | – | no change
CD320: N195Q | – | no change | –
